Experimental data taken from patent US20220089574A1, “CXCR4 gamete molecular structure and method thereof” (priority 2020, published 2022).
Square brackets hold non-standard residues; d marks the D form. Side chains are listed from the residue outwards. Peptide text beside a SMILES is read from it. * marks the point of attachment. DOTA = O=C(O)CN1CCN(CC(=O)O)CCN(CC(=O)*)CCN(CC(=O)O)CC1; dTyr(3-I) = N[C@H](Cc1ccc(O)c(I)c1)C(=O)O; 2Nal = N[C@@H](Cc1ccc2ccccc2c1)C(=O)O; dNMeOrn = CN[C@H](CCCN)C(=O)O; 4Amb = NCc1ccc(C(=O)O)cc1

Experiment: in vivo
Parameters: species or system SCID mice
Settings: SCID, mouse, iv, total radioactivity, accumulation in the tumor
Description: Embodiment 3: Radionuclide Labeled D-L2(-B)-L1-A is Used for Animal In Vivo imaging PC-3 human […] adenocarcinoma cells were inoculated into the forelimbs of SCID mice at 4×10^6, and about 3 weeks after inoculation, the radionuclide In-111 labeled D-L2(-B)-L1-A was used to adjust with injection water, and 469-527 μCi of radioactive drugs were intravenously injected into the tail vein, and nano SPECT/CT imaging was performed after administration at 1, 4, 24, 48, 72, and 96 hours, respectively. Nano SPECT/CT was used to track the distribution of radiopharmaceuticals in the animal body at each of the time points after administration, and analysis software was used to enter the image into the semi-definite image to obtain the SPECT value from the test substance with known activity at each of the time points. The linear ratio formula was derived between the SPECT calculated value and the actual activity, and the SPECT calculated value was then used at each target organ circled area to obtain the live/volume of each target organ with interpolation or extrapolation linear formula.
For performing the calculation we assume that every 1 mL of injection dosage is 1 g, and the circled area in the mouse body is 1 g per 1 cm^3. Furthermore, since the activity volume of the administered injection and the weight of the experimental mouse are known, each gram of In-111-D-L2(-B)-L1-A's biological distribution ratio (% ID/g) in each organ can be deduced, and will focus on organ tumor, liver, kidney and muscle into the distribution comparison and obtain ratio, as shown in FIG. 10.

Compound | tissue uptake at 1 h [%ID/g] | tissue uptake at 4 h [%ID/g] | tissue uptake at 48 h [%ID/g] | tissue uptake at 72 h [%ID/g] | tissue uptake at 96 h [%ID/g] | tissue uptake at 24 h [%ID/g]
CN1C(=O)[C@@H](Cc2ccc(O)c(I)c2)NC(=O)CNC(=O)[C@H](Cc2ccc3ccccc3c2)NC(=O)[C@H](CCCNC(=N)N)NC(=O)[C@H]1CCCNC(=O)c1ccc(CNC(=O)CN2CCN(CC(=O)O)CCN(CC(=O)O)CCN(CC(=O)O)CC2)cc1 [In-111-pentixather, metal not drawn] (cyclo([dTyr(3-I)][dNMeOrn]([4Amb-DOTA])R[2Nal]G)) | 3.24 | 1.54 | 0.5 | 0.24 | 0.25 | –
Cc1ccc(CCCC(=O)NCCCC[C@H](NC(=O)CN2CCN(CC(=O)O)CCN(CC(=O)O)CCN(CC(=O)O)CC2)C(=O)NCCCCCC(=O)NCCC[C@@H]2C(=O)N[C@@H](CCCNC(=N)N)C(=O)N[C@@H](Cc3ccc4ccccc4c3)C(=O)NCC(=O)N[C@H](Cc3ccc(O)c(I)c3)C(=O)N2C)cc1 (111In complex, metal not drawn) [I-01(-I-01)-I-17] | 7.87 | – | – | – | – | > 1
Cc1ccc(CCCC(=O)NCCCC[C@H](NC(=O)CN2CCN(CC(=O)O)CCN(CC(=O)O)CCN(CC(=O)O)CC2)C(=O)NCc2ccc(C(=O)NCCC[C@@H]3C(=O)N[C@@H](CCCNC(=N)N)C(=O)N[C@@H](Cc4ccc5ccccc5c4)C(=O)NCC(=O)N[C@H](Cc4ccc(O)c(I)c4)C(=O)N3C)cc2)cc1 (111In complex, metal not drawn) [I-01(-I-01)-I-01] | 5.47 | – | – | – | – | > 1
